The supplement of paper PMC10567573
± gives the standard deviation.

Test: protein stability index of a GFP-peptide fusion (GPS, HEK-293T) (PSI 1-6); higher = more stable
Settings: c terminus: a fixed tail appended
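Also: 24-mer peptide tiles fused after GFP, lentivirally expressed, FACS-sorted into six equal bins by GFP/DsRed ratio, decoded by Illumina sequencing, PSI is the read-weighted mean bin number.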

Sequence	protein stability index (treatment: DMSO)	protein stability index (treatment: MLN4924 1 uM, 8 h)
SSPSNMLPVRPQTNALIGGPMPMS [CLINT1]	3.85 ± 0.22	3.7 ± 0.25
FLTAPLLEFLLALYFLFADAMQLN [CMTM3]	2.94 ± 0.29	3.17 ± 0.3
QEYNIPGVIQSVIGWKTVRMYPFQ [CDS2]	2.45 ± 0.67	2.42 ± 0.3
EAEEEKGEKEEEDKDDEEKPKIED [HSP90AB1]	5.55 ± 0.35	5.6 ± 0.38
TVEKDKVTGETRVLSSTTLLPRQP [PALM]	4.86 ± 0.23	4.87 ± 0.084
QILGQTLKASMRELGLLIFFLFIG [KCNA1]	2.67 ± 0.67	2.45 ± 0.51
FYGLLFTSENLKLVHIVCHKKTTH [DFFB]	2.73 ± 0.56	2.58 ± 0.31
FQDAIFPDTQENRRMFSSLFQFSN [CCDC3]	2.38 ± 0.43	2.58 ± 0.37
VTPAQNNLLQPNFEAAFGTTPSTS [SNAP91]	4.52 ± 0.13	4.62 ± 0.14
TISVNQTRVNLSSDTESTDLPSST [DLC1]	4.11 ± 0.15	4.41 ± 0.23
EEEENRDSQQPGKRRKDSEEEAAS [FANCE]	5.78 ± 0.21	5.73 ± 0.2
QNINAPAPATTSSWEVVRNPLIAS [C22orf31]	3.65 ± 0.32	3.7 ± 0.16
NWKETLVFPPEVPISEKAKDLILR [STK38L]	2.81 ± 0.43	3.28 ± 0.29
LQLGAAKKPPVTFAEKGELRKSIF [TRIM29]	3.14 ± 0.16	3.25 ± 0.21
QCAVLIYTSGTTGIPKGVMLSHDN [ACSBG2]	2.65 ± 0.51	2.58 ± 0.72
IRHNLSLNKCFIKVPREKDEPGKG [FOXJ1]	3.78 ± 0.3	3.9 ± 0.2
SSFFQQFFHCYCPVGFGRRTDPNG [CRY1]	2.42 ± 0.52	2.11 ± 0.27
QEMVVSSLVIGALLASLTGGVLID [SLC2A12]	3.61 ± 0.39	3.45 ± 0.73
YEDIRRENPVGTFHCSMSPGNLEK [PTPN9]	4.58 ± 0.23	4.73 ± 0.13
EEAAFPGRRVNAKMPVYSGSRPAC [ELOA2]	4.01 ± 0.093	3.98 ± 0.27

Sequence	protein stability index (treatment: DMSO)	protein stability index (treatment: MLN4924 1 uM, 8 h)
LVYDVEVKSHLLDYVMTTLLFSDK [TRIP13]	2.9 ± 0.45	2.92 ± 0.47
ISRAQYNALTLTFQRAMHDYNQAE [STX11]	2.21 ± 0.14	2.35 ± 0.14
MDVSREEAPQWLESDSCQKCEQPF [WDFY1]	4.89 ± 0.17	4.92 ± 0.32
VRDSDSLAESEFESAAFSQGSRSG [PHTF1]	5.15 ± 0.26	5.13 ± 0.28
ARFGSGPCKTRDDEPVCGRPLGIR [APMAP]	3.75 ± 0.28	3.87 ± 0.35
GHEKTAKSKTRSLLKRMESLKLKS [DLC1]	3.62 ± 0.17	3.89 ± 0.5
QRQKYLSLQQMQELSNILNLSYKQ [NANOGP8]	2.57 ± 0.29	2.69 ± 0.15
QGDSSQQSLKGHLRNNFQKQLLSN [ZC2HC1C]	3.31 ± 0.27	3.88 ± 0.16
SKARRKKIMIIICCVILGIVIAST [STX1A]	2.69 ± 0.23	2.67 ± 0.33
PYLLGPDKNLTEREVFNEIYPVWT [SLC19A2]	2.35 ± 0.24	2.71 ± 0.26
KLQREMERREALCRQLSESESSLE [CCDC6]	4.68 ± 0.18	4.85 ± 0.16
GSYGVVFKCRNKTSGQVVAVKKFV [CDKL4]	2.02 ± 0.48	2.16 ± 0.46
SVNICGMNEHPVCSRTWTNRLCHQ [SPAG8]	2.29 ± 0.26	2.36 ± 0.14
LLHSQARLAELEAQVRKLELERAQ [FBF1]	3.68 ± 0.15	3.5 ± 0.58
RKLFEVESVTHHDYRMELAQAGTP [SPAG8]	3.64 ± 0.33	3.57 ± 0.21
KIMADIRAQYDELARKNREELDKY [KRT18]	3.07 ± 0.15	3.19 ± 0.35
RGLRYYYDKNIIHKTAGKRYVYRF [ETS1]	2.32 ± 0.2	2.46 ± 0.18
GAQPCLLLPIVPLSWLVWLLLLLL [ADAMTS4]		2.67 ± 1.3
LYAVGGQDGVSCLNIVERYDPKEN [KLHL20]	3.89 ± 0.31	3.96 ± 0.27
QIGFSVGLGNIWRFPYLCQKNGGG [SLC6A17]	2.02 ± 0.37	1.9 ± 0.33

Sequence	protein stability index (treatment: DMSO)	protein stability index (treatment: MLN4924 1 uM, 8 h)
QALMLPPGSFWGLCQVAQEALASA [VENTX]	2.04 ± 0.25	2.18 ± 0.42
YLSQTDGAGDWREKEAKDLTELVQ [FUT8]	4.52 ± 0.27	4.7 ± 0.29
ENLLLASKLKGAAVKLADFGLAIE [CAMK2A]	2.35 ± 0.25	2.7 ± 0.29
HGQLDDLIFIFYKNGLPSPERSYV [PPEF2]	2.88 ± 0.41	2.35 ± 0.44
KLAIIPGGGGTQRLPRAIGMSLAK [AUH]	2.79 ± 0.05	2.88 ± 0.52
PMVLKGKIRPDSSRPELLQPLNFV [GLT8D2]	2.83 ± 0.2	3 ± 0.3
KVLQLTVRCEALTGELETLKERCA [CCDC89]	2.28 ± 0.21	2.45 ± 0.27
QRRHGWNPKDCSENIEVKEGGLYF [SPSB2]	3.45 ± 0.31	3.76 ± 0.46
RLHNLYSTPRCAQQAALPRLSRRM [CBY2]	2.28 ± 0.31	2.55 ± 0.4
AAGVDHVILAVSYMSQVLEKEMKA [GMPPB]	2.25 ± 0.62	2.44 ± 0.23
RIKEVEHMTRHLEESEKAMQERVQ [LRRC45]	5 ± 0.22	4.99 ± 0.21
ETILHFFVQILLALHHVHTHLILH [NEK8]	3.19 ± 0.44	3.31 ± 0.29
CTLETTVHASGWNKILVPLVLLRQ [BCL2L13]	2.61 ± 0.38	2.38 ± 0.43
GVCYSESQSSASQPRLSYAEMAED [CLCN6]	5.11 ± 0.23	5.28 ± 0.31
FLTSRTRALLRRFPRMLLVDRLPG [ZSWIM9]	2.57 ± 0.56	2.41 ± 0.39
NLDEEMKKIRQVIRKYNYVAMDTE [CNOT7]	3.47 ± 0.14	3.38 ± 0.22
NPQENRWHTIAPMGTRRKHLGCAV [KLHL20]	3.1 ± 0.13	3.11 ± 0.095
SNLSYHLEKNHPEEFCEFVKSNTE [ZBED1]	4.72 ± 0.18	4.69 ± 0.29
VKLWKVSERDKRPEGYNLKDEEGR [PPP2R2B]	4.07 ± 0.5	4.336 ± 0.038
LQRVLEHRRRNQLIKKKKEELEAK [FAM107A]	3.49 ± 0.29	3.81 ± 0.5
